Source: a protein production outcome set (Wang et al. 2014)

Test: label from the status in PepcDB records

Row | Sequence | protein production
1 | MALRKEDLILIPLVAGVMMGAIDSTIVVLALPTISDDLKAPLSLSIWIILAYLLVAAVSTTQFGRLGDMISRKTIFNSGMAIFTLGSFLCGVSSNIDFLIAFRFVQAAGGSMMQANSGSIIADNFPPNLRGRAYGYTSVGWNSGATLGIVLGGIITTLIGWRYIFYINVPVGIISLYFAIKYIIPGSKKNVKLDVPGVVTLTAALSSIAYAATDFTSHGLETTNETLLSIGFLLLVVFIFLERTNKNALLPFHLFQNRVFNFSIAASFLQSLGYLAVTFIVIMYLQGLRGLTPLDSSLLLVPGYVLGGFTGPIFGKLSDRIGARTPATLGMFLMMIAVLLYMTFNLKTPVYYVIPVSIISGLGSSMFFPANNSAVMASSPAGSYGAASGLLRTMANIGMLGSFVLAITVSTIAIPRYVAFEVFAGVGRLVGGLSASFLTGIHTALEVSFAIIAVGMLFSFVRGKENRSTSTPPRATETTK | failed
2 | MALRNVPFRSEVLGWDPDSLADYFKKLNYKDCEKAVKKYHIDGARFLNLTENDIQKFPKLRVPILSKLSQEINKNEERRSIFTRKPQVPRFPEETESHEEDNGGWSSFEEDDYESPNDDQDGEDDGDYESPNEEEEAPVEDDADYEPPPSNDEEALQNSILPAKPFPNSNSMYIDRPPSGKTPQQPPVPPQRPMAALPPPPAGRNHSPLPPPQTNHEEPSRSRNHKTAKLPAPSIDRSTKPPLDRSLAPFDREPFTLGKKPPFSDKPSIPAGRSLGEHLPKIQKPPLPPTTERHERSSPLPGKKPPVPKHGWGPDRRENDEDDVHQRPLPQPALLPMSSNTFPSRSTKPSPMNPLPSSHMPGAFSESNSSFPQSASLPPYFSQGPSNRPPIRAEGRNFPLPLPNKPRPPSPAEEENSLNEEWYVSYITRPEAEAALRKINQDGTFLVRDSSKKTTTNPYVLMVLYKDKVYNIQIRYQKESQVYLLGTGLRGKEDFLSVSDIIDYFRKMPLLLIDGKNRGSRYQCTLTHAAGYP | not failed
3 | MALTDNTRGALFMALAMASFTANDALTKSVTPYINTGQIMFVRGVMTVVLIYIAARHFGALRPLKTLLRPIIILRCLCEVTAAVLYLTALGLIEFSNASAILQSLPLVVTLGAALFLREPVGWRRWVAIIVGFIGVLVIIRPGPEGFTPGALLVVASLAVTAARDLLTRKMYADVPSLAITVITAFVNMAVGGLLIVPFGGWQPMNFTIVSHLAGSAILVLVGYQAIILSMRTGEISFVAPFRYTGLLWGFMIGVFFFNEKIDSYTIIGAMIVIGSGLYTFYRESLRKRSQMAKRAAATPTAATTVRPASVTKATVTEEAGE | failed
4 | MALVLTFLGKGGVGRTTVAIAAAKKLAQAGQRVLVLGQDPSLAWQWGITLSETAQGVEANVDGLLLSSTHLLERGWEKLKEVEAQYLRSPALKNIYGEELGVLPGMDEVLVLNALREYELSGRYDVLIYDGPGNLSTLRMLGIPEIASWYWRRFQKVLADSEVVQTLSPFVQPVASAVLSVNWSPDQMLNHPDGPQNLLQQGKAAIADPNRFAAYLVTSTDSLAQKAAQSYWGGAQQVGVTVKGVIQTPLGNGSLDANLFDPLLIAALPSYNQGNWQPLMDALPNPQAMGSAPRPLEIDVNARQVKVFLPGFDKRQVKLTQSGPELTIEAGDQRRNIDLPGNLRGKGVTGAKFQGGYLIVSFLEHHHHHH | failed
5 | MAMAVSGAVLSGLGSSFLTGGKRGATALASGVGTGAQRVGRKTLIVAAAAAQPKKSWIPAVKGGGNFLDPEWLDGSLPGDFGFDPLGLGKDPAFLKWYREAELIHGRWAMAAVLGIFVGQAWSGVAWFEAGAQPDAIAPFSFGSLLGTQLLLMGWVESKRWVDFFNPDSQSVEWATPWSKTAENFANYTGDQGYPGGRFFDPLGLAGKNRDGVYEPDFEKLERLKLAEIKHSRLAMVAMLIFYFEAGQGKTPLGALGL | failed
6 | MAMSGTYVTDVPLKGSAEKHYKRWRSENHLVPEAIGHLIQGVTVHDGDWDSHGTIKIWNYTRDGKEEVLKERIEMDDENMAVTINGLDGHVMEVLKVYVTTLHFIPESKDGCVCKITMVWEKRTEDSPEPIEFMKFVEQMIAHMDDHILQNQE | failed
7 | MAMSHLFLSSSPQSSLALRLHSTTQFTLSYSKNNKDCSFQSANEAKVSKRSLLCRAIHMESGHSGEQPKKLNFDNLLRRTKHVWDNSPQPVKEFPWNRAFGNFIQLVLDLAISVVKFLFVPILAVSSISEMSYCAHERKLALVPFPLVIGMVVAGVLQETALKISPRLKEAEVPWHLIAMMMFFTLIKLPGPYYPYWGRLLVPHFANGVLLRALWSMFFWYKKTRNTSGNPLQNHSLETE | failed
8 | MAMYIRVKRMKTTYFIQCDPTETVLDVKQKLFALIEQPVNNQRLVLMSTEEVLEDSKSLADQKVENDAVVALTLKKD | not failed
9 | MANAENNSVSTRSSELYREISQMDDEIMKLVEQINQPIGRPDFGAIEEARKKLTDKRMKLEELSKRMKEVIKEMEETPKR | failed
10 | MANEGGQDAGDEYFADLDYIEVAEQLKEGYESEVDHSDPDAEEDNGGPDAEDDDDFRPNYHYQRKIKRSSRSGSTQNSSTQSSELDSQERAVINFNPNADLDET | failed
11 | MANETPKRRILVIRIDFLGDMLCTTAFLGALKRRWPDAELHVVANRYNASALDGNPDVHAVHTYVYSRQCERNDRPGRMRAFFDRLRLVRRLRRLRFDLVVVPNGGMHRSSIQLARQLGVKDCRWHDADSEFDDRKPEHVASRPMCHEALSGFRLVPELGRNDLDGLALSVHPDRALLDTWYRLLGARAKPRVGLFVSNKATERRWPADRWCDLGRRLAPFADVIVFRDPAVSAGAGADGDAWRDVNARHVAPSSVAELVAAASLLDAIVSADSAPVHLASALGVPVAALFEDRPEKYRRWHPLGVPHMILRAGATVDAIGVDAVERAVLHLLEKAGQADDATGGALPLPDVTLVVPAVGAIVS | failed
12 | MANIEYDPERQLFHLHNDTFSYVIQVIRGYLVKRYCGPALDHFSGTAKLEDFSHAFNIQNDAAPYSLTTLPLEYSTLMGGDYRTPAYAVRNGHGQLIGNLKFDHYQILAGNESFNGTLPTARTPHGQTLIITMHDETQTLAVRLKYTIVGDLPVLLKQVEYRNLTDTTLTITHAASLQLDFDDHAYDLITLTGAHLNEAKVTRQPLTPGKKSIGSNYGASGPQGVPATILAAPATNEFAGEALGVTLLWSGNFNYTAQVDQFDNSRLVMGLNPELFAWQLKPGKPFVTPEAAVAYTNDGLNDLSRIFHRFFADHVMPLPRKNLIEYNTWETTYFDVSEAKILAEIPKAEELGVELLVIDDGWFKNRPNDAGQLGDWVPDPAKFPHGLRPVADAIHARGLAFGLWVEPEMISENSELYATHPDWAMQYVGQKPLRSRNQLILDLSQRIVQDHLITVLTNLVRDNHIDYLKWDYNRHFSQPGSPVLPPDQQGEVGYRYTRGLYRVLKTLRDTFPKLLIENCSSGGGRLDGGMIAYTDQTWTSDFTDPVYRMKIMNGFSLFFPLKIFVSHFTASPNLQDARLTPLHTRALLSLVGITGIECPPSQLSPAEAAAVKASFAFYKANRKELQNGLLFRLQPSHVNQDEVCWLITNAAKTKALVLTSVGVTSPIPHYQHVLLHYLDPKLSYQIDNTKNATGLELNHAGVTLPLAHGDFSATLMELTAVTNLPQPTAAPTLEHHHHHH | failed
13 | MANKFSAAVVYAVFSSFALNFFYQPGHVYASGATGAAQVVTELVARISGHNILPISASLILVNAPLFILAWRGIGKQFTVYTVITVVMSSVFIHFIPVTPLTHEPVINAVFGGAIMGFGVGNAMKSGISSGGTDIVSLYMRKKTGRSVGTLAFLVNGVIIFTAGVLFGWEYMLYSLIAIFVNSRVQDAIFTRQKRLQVMIVTKNPELLTKKLVNRFKHGVTILHDAEGGYTHTSQTVLMTVITMYEYQEFKDIIQKYDEHAFVSISENVRVLGKFAEVED | failed
14 | MANKVEHRLSEQQMKALTDLPLVFLITHDQSKSWPITHAISWVYAKDETTIRFAIEADSLLVKTLADHPVFTLIFFADQSTYSLTCTDVAAWETTARLPLKVALYEGQIKEVRDILFYGAAVSDRPRVYKTYDEAAAMQLDQQIQDILKG | not failed
15 | MANLFSFLFLGTLGWGMSLYLMKILLVSLTPTEIVLYRMAIGAASLFILAKLFKLKTDNIRGLILDGIIVGTFNMTLPFYLTTYAVKTVSSSLASVINGLTPLCTLILGMVFFSSKQKLGVLNLLSIVLGFIGIIIINSDVSIYQGSAVEFIALLATTISYGVTANYFKYHARTKEPILVSAVSAFVSAITMLIFKCATESSINSWGIPQGMNQIIALLWLGIIGSGFCLYLYCSLIQNAGAVFASMITYLMTITGVIMGMIFLHETISHQVMIGCIFIFFSLILVNHAPLLEKILVSISRQISLKSARRYELNQ | failed
16 | MANLGMTGVADGNNSEQTYLGQINYQDQTITKASAKKLNREIDLQRASQLTLWAMPMVGMYQSYNSTIALFDLQEGDAPIIGLHEGYDGVYPFLTANVTTPYTISLVDLSETGPYVVNIPAGSIFGVANNAWQEPIKEIGSGNKETLLFVGPGQEYPKDFDGEVIQSDTNQILYFYRVLGVGAEAEKLKTAVTAYKLSDVANPPQVKFVIYKPKASDADVTIATQPRGMAYWEVVNQYIQNEPMADRDRFFYAWLKDLGIEKGKAFNPTPYQKEILLEGVNTGMAMAQSLAFNKTKKKFSSSLYGSDSGWEGVLAGMDPKIDLDTYSMINERTAYTYEAVTTSAGMIVENPGHGSAYIGSYYDADGNALMGGKNYTLHIEPNPPAANFWSITVYDIKNRLIIRNEIKRSDLSSRSESLVMNSDGSVDLYFGPEAPEGKEGNWIQSNDGESYFMYLRLYGPEQEYFDQTYPMNKIDKTKLEHHHHHH | failed
17 | MANLWIHALTVFMGFFAIMNPIANVPIFLSLTEGDDKKTTAMVASRALLLAFLIVTIFSVAGKLIFDLFGITLPAFQITGGLLVFLIGFHMLQGDQSSVQHPSETGKKKSPEAALSVTVSPLAMPILAGPGTIATAMNFSTGENFMEMAVTIVVFGVLCLITYVLFVSGEKFVTYIGASALGVITRMMGLILAVIGAQMVIAGIHGAFGLGAG | failed
18 | MANNSPNAAVSVQSPTHQQALACLRELVGHPEAQFHDGQYEAIEALVDAGRRALVVQRTGWGKSAVYFVASLLLRRRGSGPTLIVSPLLALMRDQVAAAARAGVRAVAINSANALEWDTVLAQLAADEVDVLLVSPERLTNPSFRENQLPELIRRTGLLVIDEAHCISDWGHDFRPDYRRIADLIAQLPESVPVLATTATANSRVVHDIEEQLGAGVLTIRGALGRESLRLGVLTLPDSRDRLGWLLTHLADMPGSGIIYTLTVSAAEDTARLLAEAGHNVLSYTGRTDPADRERAEQLLKDNQVKALVATSALGMGFDKPDLGFVIHLGAPSSPVAYYQQVGRAGRGAANADVLLLPGSEDREIWQYFATASMPSAEKAAAVLGVLGEAGSALSTVALEARVDLRRTPLELLLKVLAVDGAVERVGGGWRSTGQPWNYDAERYARIAEARVDEQDSMVIYQDTAGCRMEYITSVLDDETAASCGRCDNCAGRWFPVDVAASAADAAGQTLRRAGIAVEPRLQWPSGMDRLGVAAKGKIKPDESVSEGRILARLTDLGWGGALRELFAAGAPDHAVDPAMLQACVQVLREWSGAEGGTPWSGVGRPAAVVSIPSRSKPQLVESLAQGIAGIGRMPYLGQLQPQYGGPTGARGGNSAYRLAGVWDRLVVGPELAQALAGTGGQPVLLVDDLIDSRWTMTVSARALRQAGVSAVLPLALAQAG | failed
19 | MANSLRTLFSVSTHGVFLNKRSSYRVRKVFVGMPLRICSEIPRFVSVSCIRSDMCGIMMLGKDVHDLLETSSGGNVEKGFLRWRNGGGMYHRSALIDSSALVEFGAVVHQEAILGAEVHIGSNTVIGSSVKIGPSTKIGNCSIGDLCVIHNGVCIGQDGFGFYVDDNGNMVKKPQTLNVKIGNRVEIGANTCIDRGSWRDTVIGDDTKIDNLVQIGHNVIIGKCCLFCGQVGIAGSAEIGDFVALGGRVAVRDHVSIVSKVRLAANSCVTKNITEPGDYGGFPAQEETITYSVCQTQED | failed
